In data set [1] the target is recombinant protein of full size thioredoxine domain, protease recognition site and truncated C-terminal region (40 aa residues) of thioredoxin [thioredoxin: P0AA25].
For data set [2], the target named is T1, substrate with 6/G5 site.
T1 chain: LGRAGAGIFSS

The target in data set [3] is T2, substrate with 6/R5 site.
T2 chain: LGRAGARIFSS

In data set [4] the target is T3, substrate with 6/S5 site.
T3 chain: LGRAGASIFSS

B1: Pro39 (C-terminal cysteine protease domain of Semliki Forest virus non-structural protein nsP2) (protein)
chain: KVIEGPAAPVDAFQNKANVCWAKSLVPVLDTAGIRLTAEEWSTIITAFKEDRAYSPVVALNEICTKYYGVDLDSGLFSAPKVSLYYENNHWDNRPGGRMYGFNAATAARLEARHTFLKGQWHTGKQAVIAERKIQPLSVLDNVIPINRRLPHALVAEYKTVKGSRVEWLVNKVRGYHVLLVSEYNLALPRRRVTWLSPLNVTGADRCYDLSLGLPADAGRFDLVFVNIHTEFRIHHYQQCVDHAMKLQMLGGDALRLLKPGGSLLMRAYGYADKISEAVVSSLSRKFSSARVLRPDCVTSNTEVFLLFSNFDNGKRPSTLHQMNTKLSAVYAGEAMHTAGC
As to B1, the “cleavage efficiency, Pro39, SDS-PAGE” value in data set [1] is “non structured Ter substrate is poorly cleaved while Trx substrate is effectively cleaved”. Moreover, the “cleavage specificity, mass-spectrometry” value in data set [2], in data set [3] and in data set [4] was “cleavage specificity was preserved for all of these modified recognition sites (demonstrated by mass-spectrometry)” throughout.
